Positions count from the first letter of the chain named.

The chains are these.
B1: E06 (VNAR)
VNAR: TRVDQTPRTATRETGESLTINCVLTDTSYPLYSTYWYRKNPGSSNKEQISISGRYVESVNKGTKSFSLRIKDLTVADSATYICRAMGTNIWTGDGAGTVLTVNA
notes: Shark (Squalus acanthias) VNAR single domain, type IV; tested as monomeric 6xHis-tagged protein; also called E06-AAA-6xHis; VNAR clone E06
B2: huE06 v1.1 (VNAR)
VNAR: TRVDQSPSSLSASVGDRVTITCVLTDTSYPLYSTYWYQQKPGSSNKEQISISGRYSESVNKGTKSFTLTISSLQPEDFATYYCRAMGTNIWTGDGAGTKVEIKH
notes: Humanized VNAR; also called humanized E06 variant 1.1
B3: huE06 v1.10 (VNAR)
VNAR: B2 VNAR with Q38R, Q39K, K40N
notes: Humanized VNAR; also called hE06v1.10

T1 sequence (P07724 25-608 limits assumed): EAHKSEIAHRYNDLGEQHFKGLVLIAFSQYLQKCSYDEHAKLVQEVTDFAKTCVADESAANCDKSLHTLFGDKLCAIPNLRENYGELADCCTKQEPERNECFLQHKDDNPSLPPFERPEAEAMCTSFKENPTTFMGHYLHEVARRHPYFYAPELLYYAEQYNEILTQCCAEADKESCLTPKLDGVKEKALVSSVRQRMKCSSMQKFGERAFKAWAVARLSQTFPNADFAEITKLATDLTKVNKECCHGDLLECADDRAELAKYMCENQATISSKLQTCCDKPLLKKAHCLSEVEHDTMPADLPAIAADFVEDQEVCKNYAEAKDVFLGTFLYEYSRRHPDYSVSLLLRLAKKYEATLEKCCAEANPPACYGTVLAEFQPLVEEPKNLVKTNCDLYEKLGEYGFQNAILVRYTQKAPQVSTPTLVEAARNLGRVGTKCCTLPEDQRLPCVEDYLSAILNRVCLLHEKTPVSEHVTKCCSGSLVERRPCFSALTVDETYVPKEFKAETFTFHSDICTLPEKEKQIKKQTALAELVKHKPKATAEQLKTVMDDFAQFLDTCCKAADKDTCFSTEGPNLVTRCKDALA

The first experiment concerns the target T1, mouse serum albumin (mouse, UniProt P07724 25-608).
T1 construct: also called MSA; mouse albumin
Nature of the experiment: SPR (BIAcore), pH 6.0. On the technique in general: In SPR one partner is held on a chip, and binding of the other changes the refractive index at the surface.
Regarding B1, the “% Surface Active” value is 34.2%.

With B2, the “% Surface Active” value turned out to be 16.3%.

Turning to B3, the “% Surface Active” value is 24.5%.

The next experiment addresses T2, human serum albumin (human, UniProt P02768 25-609).
T2 construct: also called HSA; HAS
The experiment in a line: SPR (BIAcore), pH 6.0.
For the molecule B1, the “% Surface Active” value was determined as 49.6%.

As to B2, the “% Surface Active” value is 29%.

Consider B3, for which the “% Surface Active” value amounted to 39.3%.

The target of a further experiment is T3, rat serum albumin (rat, UniProt P02770 25-608).
T3 construct: also called RSA; rat albumin
T3 sequence (P02770 25-608 limits assumed): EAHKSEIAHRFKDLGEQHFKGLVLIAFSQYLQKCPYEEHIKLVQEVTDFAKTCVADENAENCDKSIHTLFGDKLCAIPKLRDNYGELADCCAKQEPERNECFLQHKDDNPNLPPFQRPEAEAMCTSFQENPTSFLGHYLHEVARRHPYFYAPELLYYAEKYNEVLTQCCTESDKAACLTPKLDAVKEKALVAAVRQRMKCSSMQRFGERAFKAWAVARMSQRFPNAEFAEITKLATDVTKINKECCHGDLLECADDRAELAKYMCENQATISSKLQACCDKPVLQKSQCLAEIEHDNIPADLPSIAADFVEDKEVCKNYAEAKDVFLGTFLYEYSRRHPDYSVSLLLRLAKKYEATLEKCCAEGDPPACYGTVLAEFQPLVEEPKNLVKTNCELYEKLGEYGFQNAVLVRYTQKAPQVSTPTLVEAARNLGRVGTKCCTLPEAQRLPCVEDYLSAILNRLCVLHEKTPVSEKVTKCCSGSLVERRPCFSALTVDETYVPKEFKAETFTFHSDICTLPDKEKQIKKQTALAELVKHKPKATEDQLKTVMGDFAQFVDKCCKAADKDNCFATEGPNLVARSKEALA
Nature of the experiment: SPR (BIAcore), pH 6.0.
Take B1: the “% Surface Active” value was 39.5%.

B2: the “% Surface Active” value was determined as 17.4%.

Turning to B3, the “% Surface Active” value is 27.4%.

The target of another experiment is T1, mouse serum albumin. Nature of the experiment: SPR (BIAcore), pH 7.4.
With B1, the “% Surface Active” value amounted to 85.2%.

Regarding B2, the “% Surface Active” value stood at 78.2%.

On to B3, for which the “% Surface Active” value came to 78.2%.

A further experiment addresses T2, human serum albumin. Nature of the experiment: SPR (BIAcore), pH 7.4.
As to B1, the “% Surface Active” value is 85.3%.

Consider B2, for which the “% Surface Active” value was 77.8%.

Take B3: the “% Surface Active” value stood at 79.8%.

The next experiment deals with T3, rat serum albumin. Nature of the experiment: SPR (BIAcore), pH 7.4.
For B1, the “% Surface Active” value turned out to be 88.4%.

Regarding B2, the “% Surface Active” value is 72.9%.

As to B3, the “% Surface Active” value is 79.3%.

(Values after patent US20130302250A1 (published 2013).)
